{
  "source": "patent US20220193191A1",
  "target": "human interleukin-4 receptor alpha chain (IL-4Rα) (human) (UniProt P24394)",
  "assay": "cell-based or functional assay",
  "data": [
    {"binder": "Reference IL-4Rα antibody (Dupilumab) (antibody, INN chains, looked up, V domains shown) VH: EVQLVESGGGLEQPGGSLRLSCAGSGFTFRDYAMTWVRQAPGKGLEWVSSISGSGGNTYYADSVKGRFTISRDNSKNTLYLQMNSLRAEDTAVYYCAKDRLSITIRPRYYGLDVWGQGTTVTVSS VL: DIVMTQSPLSLPVTPGEPASISCRSSQSLLYSIGYNYLDWYLQKSGQSPQLLIYLGSNRASGVPDRFSGSGSGTDFTLKISRVEAEDVGFYYCMQALQTPYTFGQGTKLEIKR", "values": [
      {"measurement": "Eotaxin-3 IC50 (nM): inhibition of IL-4 induced eotaxin-3 release, human whole blood in vitro, 8 ng/mL IL-4 for 24 hours, ELISA", "value": 1.5, "unit": "nM"},
      {"measurement": "MDC IC50 (nM): inhibition of IL-4 induced MDC release, human whole blood in vitro, 8 ng/mL IL-4 for 24 hours, ELISA", "value": 1.1, "unit": "nM"},
      {"measurement": "TARC IC50 (nM): inhibition of IL-4 induced TARC release, human whole blood in vitro, 8 ng/mL IL-4 for 24 hours, ELISA", "value": 0.8, "unit": "nM"},
      {"measurement": "pSTAT IC50 (nM): inhibition of IL-4 stimulated STAT6 phosphorylation in CD3+ T cells, human whole blood in vitro, 8 ng/mL IL-4 for 15 minutes, FACS", "value": 0.8, "unit": "nM"}
    ]}
  ]
}
